Assay results from patent US20230348587A1 (Astellas, published 2023).
Where a chain is given by its changes, count along the chain named.

T1: human TSPAN8(T131N)-GFP on CHO-K1 cell (human, UniProt P19075 1-237)
T1 construct: whole, on cells; Transiently expressed; GFP-positive cells were analysed; also called T131N mutant; not shown: GFP of the pCMV6-AC-GFP vector (ORIGENE, PS100010)
T1 sequence (looked up): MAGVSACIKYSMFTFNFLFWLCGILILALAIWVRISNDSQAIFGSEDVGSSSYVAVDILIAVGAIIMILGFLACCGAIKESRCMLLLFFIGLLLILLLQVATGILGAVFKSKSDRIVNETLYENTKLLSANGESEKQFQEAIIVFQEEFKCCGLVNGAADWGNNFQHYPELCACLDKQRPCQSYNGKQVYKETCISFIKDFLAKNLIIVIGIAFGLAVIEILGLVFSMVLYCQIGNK

T2: human TSPAN8-GFP protein on wild-type human TSPAN8 expressing CHO-K1 cell (human, UniProt P19075 1-237)
T2 construct: whole, on cells; Transiently expressed; GFP-positive cells were analysed; also called Human TSPAN8 (Wild type); not shown: GFP of the pCMV6-AC-GFP vector (ORIGENE, PS100010)
T2 chain: T1 sequence (looked up) with N131T

T3: human rat TSPAN8-GFP chimeric protein on CHO-K1 cell (human; rat, UniProt P19075 156-237)
T3 construct: range 156-237; whole protein on cells; also called Human rat chimeric TSPAN8; human rat TSPAN8 chimeric protein; not shown: GFP of the pCMV6-AC-GFP vector (ORIGENE, PS100010)
T3 sequence: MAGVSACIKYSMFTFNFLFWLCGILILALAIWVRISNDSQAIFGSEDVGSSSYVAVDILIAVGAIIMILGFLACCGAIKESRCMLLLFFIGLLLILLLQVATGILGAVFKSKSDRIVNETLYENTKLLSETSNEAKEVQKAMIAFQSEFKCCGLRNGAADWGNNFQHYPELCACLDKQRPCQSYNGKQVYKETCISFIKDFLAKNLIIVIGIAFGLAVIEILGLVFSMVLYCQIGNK

T4: human TSPAN8(T131A)-GFP on CHO-K1 cell (human, UniProt P19075 1-237)
T4 construct: whole, on cells; Transiently expressed; GFP-positive cells were analysed; also called T131A mutant; not shown: GFP of the pCMV6-AC-GFP vector (ORIGENE, PS100010)
T4 sequence (looked up): T1 sequence (looked up) with N131A

T5: human mouse TSPAN8-GFP chimeric protein on CHO-K1 cell (human; mouse) (UniProt P19075)
T5 sequence: T3 sequence with E130D, T131N, S132T, N133D, E137D, V138F, A144V, R155E

T6: human TSPAN8-Myc-DDK expressed on CHO-K1 cell (human)
T6 construct: also called TSPAN8 (Myc-DDK-tagged)-Human tetraspanin 8 (ORIGENE, RC202694)
T6 chain: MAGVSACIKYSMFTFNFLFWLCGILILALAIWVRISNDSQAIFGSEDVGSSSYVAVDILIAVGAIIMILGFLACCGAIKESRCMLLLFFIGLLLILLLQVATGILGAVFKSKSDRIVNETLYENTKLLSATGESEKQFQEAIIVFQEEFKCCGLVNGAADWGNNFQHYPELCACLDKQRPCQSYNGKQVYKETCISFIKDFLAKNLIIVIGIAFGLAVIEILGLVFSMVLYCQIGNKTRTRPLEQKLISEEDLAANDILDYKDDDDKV

T7: human mouse TSPAN8-GFP chimeric protein on CHO-K1 cell (human; mouse, UniProt P19075 156-237)
T7 construct: range 156-237; whole protein on cells; also called Human mouse chimeric TSPAN8; human mouse TSPAN8 chimeric protein; not shown: GFP of the pCMV6-AC-GFP vector (ORIGENE, PS100010)
T7 sequence: T3 sequence with E130D, T131N, S132T, N133D, E137D, V138F, A144V, R155E

B1: 16B11 (antibody, V domains shown)
VH: QVQLVESGGGVVQPGRSLRLSCAASGFTFSSYGMHWVRQAPGKGLEWVAVIWYDGRNKYYADSVKGRFTISRDNSKNTLYLQMNSLRAEDTAVYYCTRDHSGSGSYYIDYWGQGTLVTVSS
VL: EIAMTQSPATLSVSPGERATLSCRASQSVSSNLAWYQQKPGQAPRLLIYGASTRATGLPARFSGSGSGTEFTLTISSLQSEDFAVYYCQQYNNFWTFGQGTKVEIKR
notes: VelocImmune hybridoma antibody: human variable regions with mouse constant regions (chimeric); Used Alexa Fluor647-labeled in some assays; also called antibody 16B11; anti-TSPAN8 antibody 16B11
B2: 16B12 (antibody, V domains shown)
VH: B1 VH with T28I, R56S, V93M, T97A, S101Y, S105T
VL: B1 VL with A3V, S28T, L58F, F94W
notes: VelocImmune hybridoma antibody: human variable regions with mouse constant regions (chimeric); also called antibody 16B12; anti-TSPAN8 antibody 16B12
B3: Purified anti-human TSPAN8 Antibody (BioLegend, 362702 Clone TAL69) (antibody, V domains shown)
VH: EVKLLESGGGLVQPGGSMRLSCAASGFTFTDFYMNWIRQPAGKAPEWLGFIRNKASGYTTEYNPSVKGRFTISRDNTQNMLYLQMNTLRAEDTATYYCARAHSYYGYDYFDYWGQGVMVTVSS
VL: DIQMTQSPASLSASLEEIVTITCQASQDIGNWLSWYQQKPGKSPQLLIYGATSLADGVPSRFSGSRSGTQYSLKISRLQVEDIRIYYCLQAYSAPWTFGGGTKLELK

Tests used:
[1] = target: T1, human TSPAN8(T131N)-GFP on CHO-K1 cell; test: flow cytometry on GFP-positive CHO-K1 cells; MFI minus MFI on mock cell
[2] = target: T2, human TSPAN8-GFP protein on wild-type …; test: as above
[3] = target: T3, human rat TSPAN8-GFP chimeric protein …; test: as above
[4] = target: T4, human TSPAN8(T131A)-GFP on CHO-K1 cell; test: as above
[5] = target: T1, human TSPAN8(T131N)-GFP on CHO-K1 cell; test: flow cytometry on GFP-positive CHO-K1 cells; against wild-type human TSPAN8 expressing CHO-K1 cell
Excerpt: (§1) Each vector produced was introduced into the CHO-K1 cell, to produce a cell transiently expressing a human TSPAN8-GFP protein, a human mouse TSPAN8-GFP chimeric protein or a human rat TSPAN8-GFP chimeric protein. The cell produced will be referred to as a wild-type human TSPAN8 expressing CHO-K1 cell, a human mouse TSPAN8 chimeric protein expressing CHO-K1 cell or a human rat TSPAN8 chimeric protein expressing CHO-K1 cell. Further, a cell in which a pCMV6-AC-GFP vector was introduced into a CHO-K1 cell (referred to as a mock cell) was produced. The bindings of 16B11, 16B12 and TAL69 to GFP-positive cells in these cells were measured by flow cytometry. No decrease in binding of TAL69 was observed either to the human rat or human mouse TSPAN8 chimeric protein expressing CHO-K1 cell. […] Meanwhile, the binding to the human mouse TSPAN8 chimeric protein expressing CHO-K1 cell attenuated as compared with that to the wild-type human TSPAN8 expressing CHO-K1 cell (FIGS. 5-1).
(§2) Further, in order to check whether or not the amino acid at position 131 of human TSPAN8 contributed to the binding of 16B11 or 16B12, a substitute of the amino acid was produced. Specifically, a vector containing a nucleotide sequence encoding a human TSPAN8-GFP fusion protein in which threonine (T) at position 131 of the amino acid sequence of human TSPAN8 in human TSPAN8-GFP of SEQ ID NO: 2 was replaced with alanine (A) or asparagine (N) (respectively referred to as “human TSPAN8(T131A)-GFP” or “human TSPAN8(T131N)-GFP”) was produced, and such a vector was transfected into the CHO-K1 cell, to construct a cell transiently expressing human TSPAN8(T131A)-GFP or human TSPAN8(T131N)-GFP. The cell constructed will be referred to as a human TSPAN8(T131A) expressing CHO-K1 cell or a human TSPAN8(T131N) expressing CHO-K1 cell. The bindings of 16B11, 16B12 and TAL69 to GFP-positive cells in these cells were measured by flow cytometry (FIGS. 5-3). As a result, the bindings of 16B11 and 16B12 to the human TSPAN8(T131A) expressing CHO-K1 cell and the human TSPAN8(T131N) expressing CHO-K1 cell attenuated as compared with the bindings to the wild-type human TSPAN8 expressing CHO-K1 cell.

[6] = target: T3, human rat TSPAN8-GFP chimeric protein …; test: as above
Excerpt: as §1, §2

[7] = target: T4, human TSPAN8(T131A)-GFP on CHO-K1 cell; test: as above
Excerpt: as §1, §2

[8] = target: T5, human mouse TSPAN8-GFP chimeric protein on CHO-K1 cell (human; mouse); test: as above
[9] = target: T5, human mouse TSPAN8-GFP chimeric protein on CHO-K1 cell (human; mouse); test: flow cytometry on GFP-positive CHO-K1 cells; MFI minus MFI on mock cell
[10] = target: T6, human TSPAN8-Myc-DDK expressed on …; test: binding to human TSPAN8-Myc-DDK expressed CHO-K1 cell
Method: For further specifying an antigen, an experiment of binding to a human TSPAN8-Myc-DDK expressed CHO-K1 cell was performed. The human TSPAN8-Myc-DDK expressed CHO-K1 cell was produced by transfecting TSPAN8 (Myc-DDK-tagged)-Human tetraspanin 8 (TSPAN8) (ORIGENE, RC202694) (SEQ ID NO: 2) into a CHO-K1 cell. As a result, it was confirmed that ten antibodies of 16B11, 16B12, 5B7, 9F6, 12C12, 13A9, 15D1, 18C10, 19E4 and 21F7 (referred to also as the “ten anti-TSPAN8 antibodies”) bound to the human TSPAN8-Myc-DDK expressed CHO-K1 cell, and recognize TSPAN8 as an antigen.

[11] = target: T7, human mouse TSPAN8-GFP chimeric protein …; test: flow cytometry on GFP-positive CHO-K1 cells; MFI minus MFI on mock cell
[12] = target: T7, human mouse TSPAN8-GFP chimeric protein …; test: flow cytometry on GFP-positive CHO-K1 cells; against wild-type human TSPAN8 expressing CHO-K1 cell
Excerpt: as §1, §2

| Binder | ΔMFI [1] | ΔMFI [2] | ΔMFI [3] | ΔMFI [4] | ΔMFI relative value (relative (wild-type human TSPAN8 = 100)) [5] | ΔMFI relative value [6] | ΔMFI relative value [7] | ΔMFI relative value (relative (wild-type human TSPAN8 = 100)) [8] | ΔMFI [9] | binding result [10] | ΔMFI [11] | ΔMFI relative value [12] | ΔMFI relative value [5] |
| --- | --- | --- | --- | --- | --- | --- | --- | --- | --- | --- | --- | --- | --- |
| B1 | 3460 | 173000 | 161000 | 23400 | 2 | 93 relative (wild-type human TSPAN8 = 100) | 14 relative (wild-type human TSPAN8 = 100) | 3 | 5270 | binds |  |  |  |
| B2 |  |  | 22400 |  |  | 84 relative (wild-type human TSPAN8 = 100) |  |  |  |  | 102 | 0 relative (wild-type human TSPAN8 = 100) |  |
| B3 | 143000 | 133000 | 96200 | 184000 |  | 72 relative (wild-type human TSPAN8 = 100) | 139 relative (wild-type human TSPAN8 = 100) |  |  |  | 305000 | 230 relative (wild-type human TSPAN8 = 100) | 108 relative (wild-type human TSPAN8 = 100) |
